Experimental data taken from US20260176373A1 (BRIGHT BIOLOGICS, published 2026).
Each block holds one binder with its values, some of them ahead of it.

How the values were obtained:
[1] = target: human TROP2 (Trophoblast cell-surface antigen 2) (human) (UniProt P09758); experiment: flow cytometry whole cell binding, Colo205 cells (endogenous TROP2)
[2] = target: human TROP2 (Trophoblast cell-surface antigen 2) (human) (UniProt P09758); experiment: flow cytometry whole cell binding, NCI-H1975 cells (endogenous TROP2)
[3] = target: human TROP2 (Trophoblast cell-surface antigen 2) (human) (UniProt P09758); experiment: flow cytometry, OE-19 cells
[4] = target: human TROP2 (Trophoblast cell-surface antigen 2) (human) (UniProt P09758); experiment: flow cytometry, AU-565 cells, Immu-132 at 100 nM
[5] = target: human TROP2 (Trophoblast cell-surface antigen 2) (human) (UniProt P09758); experiment: flow cytometry whole cell binding, CHO-h-TROP2 stable cells
[6] = target: human TROP2 (Trophoblast cell-surface antigen 2) (human) (UniProt P09758); experiment: flow cytometry, SKOV3 cells
[7] = target: human TROP2 (Trophoblast cell-surface antigen 2) (human) (UniProt P09758); experiment: flow cytometry whole cell binding, SKBR3 cells
[8] = target: human TROP2 (Trophoblast cell-surface antigen 2) (human) (UniProt P09758); experiment: flow cytometry whole cell binding, CHO-h-TROP2 stable cells; remark: listed apart in the source
[9] = target: human TROP2 (Trophoblast cell-surface antigen 2) (human) (UniProt P09758); experiment: cell-based or functional assay
[10] = target: human TROP2 (Trophoblast cell-surface antigen 2) (human) (UniProt P09758); experiment: flow cytometry, HCC202 cells, antibody at 100 nM
[11] = target: human TROP2 (Trophoblast cell-surface antigen 2) (human) (UniProt P09758); experiment: flow cytometry, SKBR3 cells, antibody at 100 nM
[12] = target: human TROP2 (Trophoblast cell-surface antigen 2) (human) (UniProt P09758); experiment: flow cytometry whole cell binding, NCI-H441 cells
[13] = target: human TROP2 (Trophoblast cell-surface antigen 2) (human) (UniProt P09758); experiment: flow cytometry, NCI-H441 cells, Immu-132 at 100 nM
[14] = target: human TROP2 (Trophoblast cell-surface antigen 2) (human) (UniProt P09758); experiment: flow cytometry whole cell binding, h-TROP2 stably transfected CHO cells
[15] = target: human TROP2 (Trophoblast cell-surface antigen 2) (human) (UniProt P09758); experiment: flow cytometry whole cell binding, HCC202 cells
[16] = target: T1, human TROP2 (Trophoblast cell-surface antigen 2) (human, UniProt P09758 27-323); experiment: flow cytometry whole cell binding, CHO-h-TROP2 stable cells
T1 construct: whole, on cells; also called TACSTD2; h-TROP2
T1 sequence (looked up): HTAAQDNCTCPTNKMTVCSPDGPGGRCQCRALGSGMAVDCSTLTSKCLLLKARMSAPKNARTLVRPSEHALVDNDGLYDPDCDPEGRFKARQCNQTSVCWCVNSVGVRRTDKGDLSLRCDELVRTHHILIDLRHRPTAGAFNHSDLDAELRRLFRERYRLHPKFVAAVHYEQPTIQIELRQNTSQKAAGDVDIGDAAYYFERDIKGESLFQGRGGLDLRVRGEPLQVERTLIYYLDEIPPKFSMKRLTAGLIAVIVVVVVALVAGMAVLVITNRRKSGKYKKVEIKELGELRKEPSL
Description: (§1) Binding of bivalent anti-TROP2 VHH-Fc clones to human TROP2 in human TROP2 stably transfected CHO cells (CHO-h-TROP2 stable cells) were determined by flow cytometry whole cell binding (WCB) assays. Briefly, antibodies were incubated at different concentrations with CHO-h-TROP2 stable cells (0.2×10⁶/ml) in 96-well plates (100 μl/well) in FACS buffer for 30 min. After washing, Alexa Fluor 488 conjugated anti-human IgG Fc secondary antibody was added, and incubated for 30 min. After washing, MFI was measured using CytoFlex by gating live cell population with FITC channel. EC50 of binding was calculated using GraphPad Prism7.0.
Humanization of Alpaca clone 1H11 was carried out using the same strategy. Ten humanized VHH-Fc variants were made with minor difference in Framework 2. The binding activity of humanized variants to human TROP2 was examined using whole cell binding assays.

[17] = target: T1, human TROP2 (Trophoblast cell-surface …); experiment: flow cytometry whole cell binding, Colo205 cells (endogenous TROP2)
[18] = target: T1, human TROP2 (Trophoblast cell-surface …); experiment: flow cytometry whole cell binding, NCI-H1975 cells (endogenous TROP2)
[19] = target: T1, human TROP2 (Trophoblast cell-surface …); experiment: flow cytometry whole cell binding, CHO-h-TROP2 stable cells; remark: listed apart in the source
[20] = target: T1, human TROP2 (Trophoblast cell-surface …); experiment: as above; remark: listed apart in the source
Description: as §1
The same strategy was carried out for the humanization of Alpaca clone 4C6. Ten humanized VHH-Fc variants were made for 4C6 with minor difference in Framework 2 and Framework 3. Whole cell binding to CHO-h-TROP2 stable cells was performed to compare the binding affinities of these humanized VHH-Fc variants to the parental Alpaca clone 4C6.

[21] = target: T2, human TROP2 (Trophoblast cell-surface antigen 2) (human, UniProt P09758 27-323); experiment: flow cytometry whole cell binding, SKBR3
T2 chain: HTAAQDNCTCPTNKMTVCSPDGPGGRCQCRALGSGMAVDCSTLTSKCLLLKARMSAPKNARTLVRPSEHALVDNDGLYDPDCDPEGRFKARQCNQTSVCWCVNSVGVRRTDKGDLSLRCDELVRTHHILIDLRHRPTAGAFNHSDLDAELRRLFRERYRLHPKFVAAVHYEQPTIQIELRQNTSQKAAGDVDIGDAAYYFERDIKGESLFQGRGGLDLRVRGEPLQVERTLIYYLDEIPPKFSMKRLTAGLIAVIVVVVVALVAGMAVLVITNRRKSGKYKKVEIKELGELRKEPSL

[22] = target: T1, human TROP2 (Trophoblast cell-surface …); experiment: flow cytometry whole cell binding, h-TROP2 stably transfected CHO cells
Description: as §1

EC50 [1]: 1.15 nM | EC50 [2]: 3.61 nM | MFI [3]: 30000 MFI | MFI [4]: 90000 MFI | EC50 [5]: 1.16 nM | MFI [6]: 50000 MFI | EC50 [7]: 128 nM | EC50 [8]: 0.84 nM | MFI [10]: 200000 MFI | MFI [11]: 90000 MFI | EC50 [12]: 1.74 nM | MFI [13]: 200000 MFI | EC50 [14]: 2.2 nM | EC50 [15]: 4.02 nM
B1: Immu-132 (antibody, INN chains, looked up, V domains shown)
VH: QVQLQQSGSELKKPGASVKVSCKASGYTFTNYGMNWVKQAPGQGLKWMGWINTYTGEPTYTDDFKGRFAFSLDTSVSTAYLQISSLKADDTAVYFCARGGFGSSYWYFDVWGQGSLVTVSS
VL: DIQLTQSPSSLSASVGDRVSITCKASQDVSIAVAWYQQKPGKAPKLLIYSASYRYTGVPDRFSGSGSGTDFTLTISSLQPEDFAVYYCQQHYITPLTFGAGTKVEIKR
modifications: unconjugated
IC50, nM, Killing of HCC202 cells by 2nd Ab-MMAE [9]: 0.19 nM | IC50, nM, Killing of NCI-H441 cells by 2nd Ab-MMAE [9]: 0.13 nM | IC50, nM, Killing of SKBR3 cells by 2nd Ab-MMAE [9]: 0.452 nM

EC50 [16]: 2.29 nM | EC50 [17]: 1.71 nM | EC50 [18]: 3.12 nM
B3: 1H11-hv10 (humanized VHH-Fc variant of 1H11, Example 5) (antibody, V domains shown)
VH: EVQLVESGGGLVQPGGSLRLSCAASGGTFSRYIMSWFRQAPGKEREFVSAISGSGGSTYYADSVKGRFTISRDNSKNTLYLQMNSLRAEDTAVYYCASTFYSTTYVAQRDARDYAYWGQGTQVTVSS
notes: hinge not specified

EC50 [20]: 2.32 nM
B7: 4C6-hv9 (humanized VHH-Fc variant of 4C6) (antibody, V domains shown)
VH: EVQLVESGGGLVQPGGSLRLSCAASGHPFAMYAMGWFRQAPGKEREFVSAIAGNGGSTYYADSVKGRFTISRDNSKNTLYLQMNSLRAEDTAVYYCAAAGGTFYSGTTVATRSSHYDYWGQGTQVTVSS

EC50 [16]: 2.59 nM | EC50 [17]: 1.19 nM | EC50 [18]: 2.42 nM
B10: 1H11-hv7 (humanized VHH-Fc variant of 1H11) (antibody, V domains shown)
VH: EVQLVESGGGLVQPGGSLRLSCAASGGTFSRYIIGWFRQAPGKEREFVSTISGSGGSTYYADSVKGRFTISRDNSKNTLYLQMNSLRAEDTAVYYCASTFYSTTYVAQRDARDYAYWGQGTQVTVSS

EC50 [16]: 2.18 nM | EC50 [17]: 1.22 nM | EC50 [18]: 2.7 nM
B11: 1H11-hv6 (humanized VHH-Fc variant of 1H11) (antibody, V domains shown)
VH: EVQLVESGGGLVQPGGSLRLSCAASGGTFSRYIIGWFRQAPGKEREFVTTISGSGGSTYYADSVKGRFTISRDNSKNTLYLQMNSLRAEDTAVYYCASTFYSTTYVAQRDARDYAYWGQGTQVTVSS

EC50 [16]: 1.97 nM | EC50 [17]: 1.29 nM | EC50 [18]: 2.54 nM
B12: 1H11-hv8 (humanized VHH-Fc variant of 1H11, Example 5) (antibody, V domains shown)
VH: EVQLVESGGGLVQPGGSLRLSCAASGGTFSRYIMGWFRQAPGKEREFVSTISGSGGSTYYADSVKGRFTISRDNSKNTLYLQMNSLRAEDTAVYYCASTFYSTTYVAQRDARDYAYWGQGTQVTVSS
notes: hinge not specified

The remaining lines, values behind:

B2: Immu-132_MMAE (protein, INN chains, looked up)
VH: QVQLQQSGSELKKPGASVKVSCKASGYTFTNYGMNWVKQAPGQGLKWMGWINTYTGEPTYTDDFKGRFAFSLDTSVSTAYLQISSLKADDTAVYFCARGGFGSSYWYFDVWGQGSLVTVSS
VL: DIQLTQSPSSLSASVGDRVSITCKASQDVSIAVAWYQQKPGKAPKLLIYSASYRYTGVPDRFSGSGSGTDFTLTISSLQPEDFAVYYCQQHYITPLTFGAGTKVEIK
modifications: vc-MMAE payload conjugate
IC50 (nM) in ADC mediated killing, NCI-H441 cells, Immu-132 MMAE DAR3.5 [9]: 0.047 nM | IC50 (nM) in ADC mediated killing, NCI-H441 cells, Immu-132 MMAE DAR4.0 [9]: 0.04 nM | IC50 (nM) in ADC mediated killing, NCI-H441 cells, Immu-132 MMAE DAR4.4 [9]: 0.033 nM | IC50, nM, in killing assay, A431 cells [9]: 0.611 nM | IC50, nM, in killing assay, AU-565 cells [9]: 0.0489 nM | IC50, nM, in killing assay, Colo205 cells [9]: 0.45 nM | IC50, nM, in killing assay, N87 cells [9]: 0.092 nM | IC50, nM, in killing assay, NCI-H441 cells [9]: 0.054 nM | IC50, nM, in killing assay, NCI-H1975 cells [9]: 0.25 nM | IC50, nM, in killing assay, OE-19 cells [9]: 1.1 nM | IC50, nM, in killing assay, SK-OV3 cells [9]: 1.44 nM | IC50, nM, in killing assay, SKBR3 cells [9]: 0.0362 nM | IC50, nM, in killing assay, T-47D cells [9]: 0.21 nM

B4: 1H11-hv10_Fc (antibody, V domains shown)
VH: EVQLVESGGGLVQPGGSLRLSCAASGGTFSRYIMSWFRQAPGKEREFVSAISGSGGSTYYADSVKGRFTISRDNSKNTLYLQMNSLRAEDTAVYYCASTFYSTTYVAQRDARDYAYWGQGTQVTVSS
notes: monospecific bivalent VHH-Fc with C220S mutation in the hinge region; also called monospecific anti-TROP2 (1H11-hv10)
EC50 [19]: 2.38 nM

B5: 4C6-hv10 (humanized VHH-Fc variant of 4C6) (antibody, V domains shown)
VH: EVQLVESGGGLVQPGGSLRLSCAASGHPFAMYAMGWFRQAPGKEREFVAAIAGNGGSTSYADSVKGRFTISRDNSKNTLYLQMNSLRAEDTAVYYCAAAGGTFYSGTTVATRSSHYDYWGQGTQVTVSS
EC50 [20]: 1.46 nM

B6: anti-TROP2 VHH-Fc clone Alpaca 4C6 (antibody, human IgG1, V domains shown)
VH: QVQVVESGGGLVQAGGSQRLSCAVSGHPFAMYAMGWFRQAPGKEREFVAAIAGNGGSTSYADSVKGRFTISRDYAKNTNYLQMNSLEPEDTAVYYCAAAGGTFYSGTTVATRSSHYDYWGQGTQVTVSS
notes: domain: hinge region and constant domains (CH2 and CH3); bivalent VHH-Fc, human IgG1 Fc; also called 4C6 Alpaca
EC50 [21]: 1.58 nM | EC50 [20]: 0.97 nM | EC50 [22]: 1.37 nM

B8: 4C6-hv4 (humanized VHH-Fc variant of 4C6) (antibody, V domains shown)
VH: EVQLVESGGGLVQPGGSLRLSCAASGHPFAMYAMGWFRQAPGKEREFVSAIAGNGGSTSYADSVKGRFTISRDNSKNTLYLQMNSLRAEDTAVYYCAAAGGTFYSGTTVATRSSHYDYWGQGTQVTVSS
EC50 [20]: 2.6 nM

B9: anti-TROP2 VHH-Fc clone Alpaca 1H11 (antibody, human IgG1, V domains shown)
VH: LVQLVESGGGLVQAGDSLRLSCTASGGTFSRYIIGWFRQAPGKEREFVTTISGSGGSTYYADSVKGRFTISRDNAKNTVFLQMNSLKPEDTAVYYCASTFYSTTYVAQRDARDYAYWGQGTQVTVSS
notes: domain: hinge region and constant domains (CH2 and CH3); bivalent VHH-Fc, human IgG1 Fc
EC50 [16]: 1.57 nM | EC50 [21]: 2.14 nM | EC50 [17]: 1.53 nM | EC50 [22]: 1.84 nM | EC50 [18]: 2.59 nM

B13: 1H11-hv9 (humanized VHH-Fc variant of 1H11) (antibody, V domains shown)
VH: EVQLVESGGGLVQPGGSLRLSCAASGGTFSRYIMSWFRQAPGKEREFVSTISGSGGSTYYADSVKGRFTISRDNSKNTLYLQMNSLRAEDTAVYYCASTFYSTTYVAQRDARDYAYWGQGTQVTVSS
EC50 [16]: 2.73 nM | EC50 [17]: 1.29 nM | EC50 [18]: 3.04 nM
